In the supplement of paper PMC12042874 one finds amyloid nucleation score data, which are given here for 133 substances.

± gives the uncertainty stated by the source.

The series in a line: amyloid nucleation score (Sup35N fusion, yeast selection) (log enrichment); library NNK3; higher = more nucleation; inactive = no reads after selection. Summed up: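 Psi-negative yeast expressed Sup35N fused to peptides of 20 random codons. They were induced 24 hours with 100 μM copper sulfate, grown 7 days at 30°C without adenine and uracil, and their plasmid inserts from input and output were Illumina-sequenced. The nucleation score is the DiMSum log enrichment of output over input reads, centred on the mode score of non-aggregating sequences. Sequences with under 100 input reads were excluded.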
With LEWERPS, the amyloid nucleation score result is “inactive”.
Take ILWMVSMLRYIIEG: the amyloid nucleation score result is “inactive”.
For the substance PFWELYKDFSSICRLTQEGY, the amyloid nucleation score result is “inactive”.
The same measure for RNCLIYGHNDILGISRLSDF: “inactive”.
Take CYYDSLYCVEFHFCNYIVVL: the amyloid nucleation score is -0.127 ± 0.99.
As for LYSIWGRNRGHGMIGWDPLT, the amyloid nucleation score result is “inactive”.
The same measure for MCILQGLFDVNSLTGLWVAS: “inactive”; for WFVRLLGSAFN: “inactive”.
Substance AVNFCMLWGVYASSQKNLGF registered an amyloid nucleation score of 0.585 ± 0.32.
Turning to HLGKPKEFMTIAGGLHCLML, the amyloid nucleation score result was “inactive”.
Substance AVLWIVSGGTYESVDLNYWC had an amyloid nucleation score of 0.837 ± 0.13.
On to ITNVRSVRFLYSSTYYHIVL, for which the amyloid nucleation score worked out at 1.83 ± 0.11.
DSASLGLNLP: the amyloid nucleation score entry is “inactive”.
NVDDLGFLFIVDAYINCHFR registered an amyloid nucleation score of 1.58 ± 0.12.
Take FYYIVIFSNHWPSCILCRGR: the amyloid nucleation score was determined as 0.792 ± 0.28.
As to YRWSPWYNYCSSWTWCQMST, the amyloid nucleation score is 1.51 ± 0.13.
In the case of SSGLFLSISLNDGWSRGVWS it was 2.77 ± 0.076.
Turning to LEFVY, the amyloid nucleation score was 0.238 ± 0.52.
On to GMLGLMAGKNLEGADRL, for which the amyloid nucleation score entry was “inactive”.
On to HNEHILSQ, for which the amyloid nucleation score entry was “inactive”.
Turning to KCIGDLTSRMDLR, the amyloid nucleation score result is “inactive”.
For LRKGVRLLFSHHVIIK, the amyloid nucleation score result is “inactive”.
With HCFFDFAYLTRCSSLRSKRC, the amyloid nucleation score result was “inactive”.
With NTSYSRMVCSKG, the amyloid nucleation score result is “inactive”.
LDCFCSPVKVTWH returned an amyloid nucleation score of 0.146 ± 0.21.
Consider NFAGMFVGLMPWHVCDTTCR, for which the amyloid nucleation score result is “inactive”.
For DECMARLNDWEGYAKD, the amyloid nucleation score result is “inactive”.
In the case of CSIVVNLMYLLVDACMGPKG, the amyloid nucleation score entry was “inactive”.
As for PMYVHRKDYKVVGSYMSTM, the amyloid nucleation score entry was “inactive”.
On to LYTDDAPGDVFLFNAFRVFH, for which the amyloid nucleation score entry was “inactive”.
Consider WDLGASYLTGMFWVRIVGLE, for which the amyloid nucleation score result is “inactive”.
The same measure for KDSQALHRFSNTILRYL: -0.406 ± 0.82; for IAFLAMHLFVASWFPR: “inactive”.
In turn, CWTVMFCF came in with an amyloid nucleation score of 1.43 ± 0.11.
As to SWMVQLVNTGVRWLVLANDA, the amyloid nucleation score result is “inactive”.
Take RLTACASYIGINGRSRN: the amyloid nucleation score result was “inactive”.
As for EMLCVDYWTFGYMVLREVTI, the amyloid nucleation score result is “inactive”.
As to CDVCNM, the amyloid nucleation score result was “inactive”.
The same measure for GLKNV: -0.431 ± 0.8; for SYMLNSCSWRTK: “inactive”.
Turning to TCRHPIPASLARSAAAVLVW, the amyloid nucleation score entry was “inactive”.
For the substance LRFAYTFFWYVRFRVRICFN, the amyloid nucleation score entry was “inactive”.
The same measure for LINAYQLLFQNHQKEMMFVT: “inactive”; for IWNRLESFHCHILMVTFHVN: “inactive”.
Take FFEFSTSVVYN: the amyloid nucleation score entry is “inactive”.
Consider WLGRTATQFNIC, for which the amyloid nucleation score entry is “inactive”.
In the case of FSKIHI it was “inactive”; in that of VNSMSC, “inactive”.
Turning to VLMSYQVCV, the amyloid nucleation score result was “inactive”.
Consider NTIRKKNLLFQAWLC, for which the amyloid nucleation score result is “inactive”.
QWTSFLVLCCTNPRLGSSRV returned an amyloid nucleation score of 2.67 ± 0.073.
As to ALFSKKFI, the amyloid nucleation score amounted to 1.83 ± 0.059.
As to TTMRCEIKSLYWIISQCWLD, the amyloid nucleation score result was “inactive”.
As for LCDFSLGGYSGNCYIFKMSV, the amyloid nucleation score was 0.739 ± 0.28.
In turn, YSKSLCVFKSICIELDF came in with an amyloid nucleation score of 2.08 ± 0.062.
Turning to MRCGKSL, the amyloid nucleation score result is “inactive”.
For LAMHIALDSNRDKAFGVLNE, the amyloid nucleation score entry was “inactive”.
Turning to CVYIDGSIAVGWYMKFILTF, the amyloid nucleation score result was “inactive”.
Regarding EILRMCH, the amyloid nucleation score entry was “inactive”.
Substance ESTGMPTALYSLAVTVRVDK yielded an amyloid nucleation score of 0.016 ± 0.33.
In the case of SYYVNVRYWSITCPIWGLSD it was 2.29 ± 0.08; in that of CIEWHAQGDFFLMICLYCPD, “inactive”.
Take VRVLMSL: the amyloid nucleation score is -0.087 ± 0.45.
In the case of IFHFAATHEWYIMYYIDGSP it was “inactive”; in that of VQWSVSFLSVVGVPWYRRLV, “inactive”.
Turning to YISLVSWHNGWYSKLICGVV, the amyloid nucleation score entry was “inactive”.
Turning to LAVFSEARNEGTTQFYYLLK, the amyloid nucleation score entry was “inactive”.
The same measure for FCEFWYLNSRKEATELRP: “inactive”; for AGVDWQILV: “inactive”.
As for VIVYLFICNADLYFYKMSDF, the amyloid nucleation score was found to be 1.72 ± 0.12.
For GWMYTCRDAHYLDGWRLVHD, the amyloid nucleation score entry was “inactive”.
For the substance KYKLTLYDNAVSGGDALHLR, the amyloid nucleation score entry is “inactive”.
On to YQIMDPNRLAFVTDMLSRDL, for which the amyloid nucleation score entry is “inactive”.
In the case of DVLGCPNMEVCWSGFLSQNY it was “inactive”; in that of RNYFMVLGRKYVFLFFWMMM, “inactive”; in that of RHREAGEATTSFNFMRMSGP, “inactive”.
Substance MLKPIMLILKSLEFVLEESS returned an amyloid nucleation score of 0.985 ± 0.11.
Regarding DMVLLWQEFDCGKVACLSGG, the amyloid nucleation score entry was “inactive”.
For RSGWS, the amyloid nucleation score result is “inactive”.
With SLRDVVV, the amyloid nucleation score result was “inactive”.
For the substance QIMIIISMRVSNMCGVSYLG, the amyloid nucleation score entry was “inactive”.
As to PDWVVPDGGIVTGIVGWCSG, the amyloid nucleation score result is “inactive”.
In the case of PCVYWSLNCSVVIIFSTRLL, the amyloid nucleation score entry was “inactive”.
The same measure for QSTPYYLGFTD: 0.988 ± 0.11; for MWVNATSSV: “inactive”; for FANQPGVNYRFTPPSCCFLT: “inactive”.
Turning to DRDMVCMSEL, the amyloid nucleation score entry is “inactive”.
The same measure for SSVSFQLEVCNQNVLYGIKI: “inactive”; for ESYTWL: “inactive”; for RRLLSKGVKIVRLISDEVYC: “inactive”.
With ECSRNAVCF, the amyloid nucleation score entry is “inactive”.
KFTYSLKLCADFGFLSTWKV: the amyloid nucleation score entry was “inactive”.
In turn, AVMDGRNMSYSMYIRCCMWL returned an amyloid nucleation score of 2.7 ± 0.074.
For the substance GNTFLWCGRVDSYSTHSYLC, the amyloid nucleation score result was “inactive”.
For GVISVFWMLWYLYPSLL, the amyloid nucleation score entry was “inactive”.
With AALTPNPGVD, the amyloid nucleation score result is “inactive”.
FRMNSLRVSLMESVCSSHT came in with an amyloid nucleation score of 1.1 ± 0.11.
Regarding LSYGFLGDRYVLHGCLMYFP, the amyloid nucleation score result was “inactive”.
For the substance TTVDDNFVHRRPM, the amyloid nucleation score entry was “inactive”.
Turning to ISGEQRYSKCRT, the amyloid nucleation score result is “inactive”.
The same measure for SFITIVIVSVGMRSLVLHRL: “inactive”.
Take RVQIKVDGVSVHTDFSDWRS: the amyloid nucleation score is 1.8 ± 0.086.
Consider VISIPHGSAIRTCIVITMSL, for which the amyloid nucleation score entry was “inactive”.
The same measure for IFILTMSDWVFL: 1.91 ± 0.062; for DLDFFGGCLFFHQGTIFYDG: “inactive”; for ILDFDFTSLPNMMRGCRSHL: “inactive”.
YFKRCQGNEQFSRNRNANGA: the amyloid nucleation score result is “inactive”.
Regarding KSMATMSQIVPDSFSEFDWY, the amyloid nucleation score result is “inactive”.
In the case of DCLDNK it was “inactive”; in that of DSFNLSDSGWSTLYIRAWDG, “inactive”.
With QLGDMNAAALITATASRLVM, the amyloid nucleation score result was “inactive”.
The same measure for IRYYFRHLG: -0.203 ± 0.36; for ELEYAHVIRGKKRCHSSRVV: “inactive”; for KGGWEADLYYVVCLVIISIW: “inactive”.
For the substance KRFGKMLLW, the amyloid nucleation score result is “inactive”.
Regarding NTINVSPVLIDN, the amyloid nucleation score result was “inactive”.
On to RWSILDGHHNVVLSVPSKS, for which the amyloid nucleation score entry was “inactive”.
On to LMLNGHAVHMSSNSEALVIC, for which the amyloid nucleation score entry is “inactive”.
The substance LLGLCRVLW registered an amyloid nucleation score of 1.31 ± 0.097.
In the case of FGWLYNLNVSDIGTGD, the amyloid nucleation score entry was “inactive”.
For the substance TRSWVYCSKDRSMRGMHHHC, the amyloid nucleation score entry was “inactive”.
Turning to CAVYCNLNDVIGVFTILQRS, the amyloid nucleation score result was “inactive”.
As to IDVLV, the amyloid nucleation score entry is “inactive”.
On to SCISKWST, for which the amyloid nucleation score result was “inactive”.
QSPSSKAK: the amyloid nucleation score result is “inactive”.
Take SLDLALNMFFFLYAGSNFFF: the amyloid nucleation score entry is “inactive”.
The same measure for MYFEECGRCFNRSFNYGVNQ: “inactive”; for FGICVDVGRAHIVKRSNRML: “inactive”.
For the substance TCYITA, the amyloid nucleation score result was “inactive”.
In the case of TRYLSSFISYGEDSMHVFCG it was “inactive”.
Consider LNQLGSCY, for which the amyloid nucleation score was -0.019 ± 1.1.
RLEGRLLCKWVCP registered an amyloid nucleation score of 1.96 ± 0.069.
With VGGIRLRIE, the amyloid nucleation score result was “inactive”.
